Changes are numbered by the printed parent chain. Numbers in names are those of the source.

Sequences and labels used below:
T1: EsCas13d, nuclease-dead (Eubacterium siraeum, UniProt B0MS50, R295A;H300A;R849A;H854A)
T1 sequence: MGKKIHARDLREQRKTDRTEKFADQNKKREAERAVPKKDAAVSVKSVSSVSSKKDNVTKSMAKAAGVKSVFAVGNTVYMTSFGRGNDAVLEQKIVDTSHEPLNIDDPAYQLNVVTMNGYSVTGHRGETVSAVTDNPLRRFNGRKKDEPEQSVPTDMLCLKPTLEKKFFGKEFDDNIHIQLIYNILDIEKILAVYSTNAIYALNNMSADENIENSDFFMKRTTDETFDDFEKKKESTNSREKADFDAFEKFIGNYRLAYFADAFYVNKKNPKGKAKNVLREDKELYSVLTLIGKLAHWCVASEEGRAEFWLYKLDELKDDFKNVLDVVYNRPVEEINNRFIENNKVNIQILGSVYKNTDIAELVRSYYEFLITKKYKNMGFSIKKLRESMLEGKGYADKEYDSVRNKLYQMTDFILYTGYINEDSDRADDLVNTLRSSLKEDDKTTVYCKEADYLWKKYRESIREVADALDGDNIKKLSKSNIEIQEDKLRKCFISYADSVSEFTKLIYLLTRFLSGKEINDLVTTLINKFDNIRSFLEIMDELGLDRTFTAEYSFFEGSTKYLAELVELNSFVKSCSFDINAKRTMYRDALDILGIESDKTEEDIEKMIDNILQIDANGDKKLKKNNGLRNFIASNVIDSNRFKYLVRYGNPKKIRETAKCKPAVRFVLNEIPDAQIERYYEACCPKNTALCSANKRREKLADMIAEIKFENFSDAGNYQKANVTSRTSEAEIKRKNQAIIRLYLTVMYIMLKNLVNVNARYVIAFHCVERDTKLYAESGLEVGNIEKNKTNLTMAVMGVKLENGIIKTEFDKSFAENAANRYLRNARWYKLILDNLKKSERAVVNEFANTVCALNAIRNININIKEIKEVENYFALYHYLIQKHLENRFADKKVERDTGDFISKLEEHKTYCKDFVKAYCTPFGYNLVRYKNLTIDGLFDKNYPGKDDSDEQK

B1: target 1 insA 3' of 8,insG 3' of 8 (mixed)
RNA 1: CACCCGUGCAAAAAUGCAGGGGUCUAAAACUGAGCGGAUAACCUCUCUAUGG
RNA 2: GGGAAUGGAUCCACAUCUACGAAUUCGUACCAUAGAGAGGUUAUAGCCGCUCACCGAGAUCGGAAGAGCACACGU
B2: target 1 insC 3' of 22,insG 3' of 3 (mixed)
RNA 1: B1 RNA 1
RNA 2: GGGAAUGGAUCCACAUCUACGAAUUCGUACCCAUAGAGAGGUUAUCCGCUGCACCGAGAUCGGAAGAGCACACGU
B3: target 1 insG 3' of 14,insU 3' of 12 (mixed)
RNA 1: B1 RNA 1
RNA 2: B1 RNA 2 with U41G, A43U, G46U
B4: target 1 insU 3' of 15,insA 3' of 10 (mixed)
RNA 1: B1 RNA 1
RNA 2: B1 RNA 2 with A38U, G39A, U41G, A43U, U44A, G46U
B5: target 1 insC 3' of 22,insA 3' of 2 (mixed)
RNA 1: B1 RNA 1
RNA 2: B2 RNA 2 with G51C, C52A
B6: target 1 insG 3' of 16,insC 3' of 5 (mixed)
RNA 1: B1 RNA 1
RNA 2: B2 RNA 2 with C32A, A33U, U34A, A35G, G36A, A37G, U50C, G51U
B7: target 1 insC 3' of 19,insA 3' of 7 (mixed)
RNA 1: B1 RNA 1
RNA 2: B2 RNA 2 with C32A, A33U, U34C, C47A, G48C, C49G, U50C, G51U
B8: target 1 G5U,G13U (mixed)
RNA 1: B1 RNA 1
RNA 2: GGGAAUGGAUCCACAUCUACGAAUUCGUACCAUAGAGAUGUUAUCCUCUCACCGAGAUCGGAAGAGCACACGU
B9: target 1 insA 3' of 19,insA 3' of 19 (mixed)
RNA 1: B1 RNA 1
RNA 2: B1 RNA 2 with G35A, G40A, U41G, U42G, A43U, G46U
B10: target 1 insG 3' of 19,insU 3' of 12 (mixed)
RNA 1: B1 RNA 1
RNA 2: B1 RNA 2 with A34G, G35A, A36G, G37A, A38G, G39A, U41G, A43U, G46U
B11: target 1 U11G,G12C (mixed)
RNA 1: B1 RNA 1
RNA 2: B8 RNA 2 with U39G, G40C, U41G, U47G
B12: target 1 insA 3' of 17,insC 3' of 17 (mixed)
RNA 1: B1 RNA 1
RNA 2: B1 RNA 2 with G37C, G40A, U41G, U42G, A43U, G46U
B13: target 1 insC 3' of 8,insU 3' of 6 (mixed)
RNA 1: B1 RNA 1
RNA 2: B1 RNA 2 with A45C, G46C, C48U
B14: target 1 insG 3' of 14,insA 3' of 11 (mixed)
RNA 1: B1 RNA 1
RNA 2: B1 RNA 2 with U41G, G46U
B15: target 1 A1G,G15C (mixed)
RNA 1: B1 RNA 1
RNA 2: B8 RNA 2 with G37C, U39G, U47G, A51G

This data set deals with T1, EsCas13d, nuclease-dead. In words: crRNA (strand 1, pre-loaded); Mg2+; 40 mM Tris-HCl pH 7.5, 150 mM NaCl, 6 mM MgCl2, 1 mM DTT, 0.1% Tween-20, 0.2 mg/ml BSA; 25 C; 10 min per concentration, then washed. Particulars: tags: His6-TwinStrep-SUMO cleaved; N-terminal SNAP kept (SNAP-Surface 488); label: 3' end held by stalled T7 RNA polymerase.
For orientation: Kd means the concentration at which binding is half-saturated. A higher Kd goes with a looser complex. In turn, B1 returned a Kd of 33.1 ± 2.6 nM. In the case of B2 it was 11 ± 0.7 nM; in that of B3, 16.4 ± 2.4 nM. Molecule B4 showed a Kd of 20.2 ± 1.1 nM. This Kd and that of the molecule before are within 1.5-fold of each other. With B5, the affinity, expressed as Kd, was 24 ± 4 nM. The same measure for B6: 52 ± 5 nM. B7 showed a Kd of 26.6 ± 2.4 nM.

B8: the Kd worked out at 64 ± 8 nM. In turn, B9 showed a Kd of 22.1 ± 2.4 nM. This Kd lies about 2.9-fold lower than the previous one. In the case of B10 it was 48 ± 5 nM; in that of B11, 17 ± 1 nM. B12 registered a Kd of 41.4 ± 2.9 nM. Compared with the last molecule, the Kd is about 2.4-fold higher. Turning to B13, the affinity, expressed as Kd, was 21.1 ± 1.5 nM. In turn, B14 came in with a Kd of 39.2 ± 2.6 nM. With B15, the affinity, expressed as Kd, was 58 ± 9 nM.
